Experimental data reported in patent US7101542.

Key:
[1] = biological target: IL-4 receptor (IL-4R) on C1498 tumor cells (UniProt P16382); assay: cell-based or functional assay
[2] = biological target: DT390IL-4 fusion protein (murine) (UniProt P00588); assay: cell-based or functional assay
Chain of UniProt P00588 (P00588 33-390, tags or fused parts left off): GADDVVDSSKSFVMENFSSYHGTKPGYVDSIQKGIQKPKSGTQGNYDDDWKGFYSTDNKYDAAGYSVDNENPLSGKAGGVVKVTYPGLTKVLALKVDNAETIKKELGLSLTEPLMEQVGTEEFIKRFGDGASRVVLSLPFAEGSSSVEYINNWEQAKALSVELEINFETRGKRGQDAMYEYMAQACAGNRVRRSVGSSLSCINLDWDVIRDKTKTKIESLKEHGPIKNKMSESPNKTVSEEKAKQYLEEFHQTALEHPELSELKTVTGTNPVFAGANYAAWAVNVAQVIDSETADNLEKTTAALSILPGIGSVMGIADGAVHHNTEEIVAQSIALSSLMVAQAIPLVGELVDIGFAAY

Chain of UniProt P16382 (P16382 26-810 limits assumed): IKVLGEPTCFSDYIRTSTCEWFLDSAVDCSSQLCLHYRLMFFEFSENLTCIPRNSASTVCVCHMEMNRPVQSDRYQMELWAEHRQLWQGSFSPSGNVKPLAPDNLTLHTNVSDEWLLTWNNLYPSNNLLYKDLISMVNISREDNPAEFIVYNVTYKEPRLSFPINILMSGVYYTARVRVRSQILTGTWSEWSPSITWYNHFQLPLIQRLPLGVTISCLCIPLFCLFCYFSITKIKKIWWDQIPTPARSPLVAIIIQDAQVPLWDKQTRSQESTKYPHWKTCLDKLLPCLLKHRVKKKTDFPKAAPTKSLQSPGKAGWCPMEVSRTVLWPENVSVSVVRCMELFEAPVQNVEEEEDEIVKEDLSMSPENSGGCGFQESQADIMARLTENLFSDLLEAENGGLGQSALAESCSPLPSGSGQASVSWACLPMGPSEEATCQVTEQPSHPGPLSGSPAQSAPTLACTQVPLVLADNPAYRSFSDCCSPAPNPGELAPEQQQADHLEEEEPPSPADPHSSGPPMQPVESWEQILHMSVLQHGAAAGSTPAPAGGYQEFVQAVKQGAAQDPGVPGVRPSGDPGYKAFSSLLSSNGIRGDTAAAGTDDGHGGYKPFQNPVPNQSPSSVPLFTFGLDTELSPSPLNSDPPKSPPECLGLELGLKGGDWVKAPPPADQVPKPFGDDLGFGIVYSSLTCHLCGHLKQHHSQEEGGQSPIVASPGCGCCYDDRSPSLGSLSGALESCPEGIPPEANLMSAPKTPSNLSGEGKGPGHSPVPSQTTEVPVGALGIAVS

| Substance | viability of C1498 cells [1] [nM] | viability of IL-4R+ C1498 leukemia cells (trypan blue, live cell count) [1] [nM] | blocking of C1498 killing by DT390IL-4 [2] [µM] |
| --- | --- | --- | --- |
| DT390IL-4 fusion protein (from UniProt P00588 33-390; P07750 21-140) | 10 | 1 | – |
| rat IgG1 anti-mouse IL-4 monoclonal antibody (Clone 11B11) | – | – | 20 |
